Here are results for one substance from patent US20180244726A1.

The experiment concerns the target large hepatitis B surface protein (hepatitis B virus). The experiment in a line: cell-based or functional assay.

The substance neutralizing monoclonal antibody Ma18/7 came in with an inhibition of HBV infection of HepG2-hNTCP cells, secreted HBeAg of more than 90%.
